According to patent publication US20130197191A1 (published 2013):

B1: β-Klotho walked dimer BK_R1c_D24 (designed binder)
chain: CRPDEFPCRSTGRCVPRRWVCDGVDDCGDNSDESLAHCQTPTCQPDEFTCSSGRCIPQPWLCDGLNDCGDGSDEPPAHCSAPASEPPGSL
B2: β-Klotho walked dimer BK_R1c_D05 (designed binder)
chain: CAAGQFRCHNSDTCLPGAWVCDGDNDCGDNSDEASCQKRTCHSFNQFECRNGQCIPLHLVCDGVPDCGDNSDETDCGDSHILPFSTPGPST
B3: β-Klotho walked dimer BK_R1c_D22 (designed binder)
chain: CQPDEFTCSSGRCIPQPWLCDGLNDCGDGSDEPPAHCSAPASEPPGSLCRPDEFRCKNGRCIPQTWVCDGEDDCQDSSDETDCESTVRT
B4: β-Klotho walked dimer BK_R1c_D18 (designed binder)
chain: CPPDEFQCRGTKKCLPLAWVCDGDNDCEDDSDEESCASAVHTCQSNEFRCRSGRCIPQHWLCDGLNDCGDGSDESQQCSAPASEPPGSL

Each binder was assayed against recombinant human β-Klotho (UniProt Q86Z14 53-996, biotinylated in the AlphaScreen assays (site not stated)) (assay: binding EC50).
Chain of recombinant human β-Klotho (Q86Z14 53-996): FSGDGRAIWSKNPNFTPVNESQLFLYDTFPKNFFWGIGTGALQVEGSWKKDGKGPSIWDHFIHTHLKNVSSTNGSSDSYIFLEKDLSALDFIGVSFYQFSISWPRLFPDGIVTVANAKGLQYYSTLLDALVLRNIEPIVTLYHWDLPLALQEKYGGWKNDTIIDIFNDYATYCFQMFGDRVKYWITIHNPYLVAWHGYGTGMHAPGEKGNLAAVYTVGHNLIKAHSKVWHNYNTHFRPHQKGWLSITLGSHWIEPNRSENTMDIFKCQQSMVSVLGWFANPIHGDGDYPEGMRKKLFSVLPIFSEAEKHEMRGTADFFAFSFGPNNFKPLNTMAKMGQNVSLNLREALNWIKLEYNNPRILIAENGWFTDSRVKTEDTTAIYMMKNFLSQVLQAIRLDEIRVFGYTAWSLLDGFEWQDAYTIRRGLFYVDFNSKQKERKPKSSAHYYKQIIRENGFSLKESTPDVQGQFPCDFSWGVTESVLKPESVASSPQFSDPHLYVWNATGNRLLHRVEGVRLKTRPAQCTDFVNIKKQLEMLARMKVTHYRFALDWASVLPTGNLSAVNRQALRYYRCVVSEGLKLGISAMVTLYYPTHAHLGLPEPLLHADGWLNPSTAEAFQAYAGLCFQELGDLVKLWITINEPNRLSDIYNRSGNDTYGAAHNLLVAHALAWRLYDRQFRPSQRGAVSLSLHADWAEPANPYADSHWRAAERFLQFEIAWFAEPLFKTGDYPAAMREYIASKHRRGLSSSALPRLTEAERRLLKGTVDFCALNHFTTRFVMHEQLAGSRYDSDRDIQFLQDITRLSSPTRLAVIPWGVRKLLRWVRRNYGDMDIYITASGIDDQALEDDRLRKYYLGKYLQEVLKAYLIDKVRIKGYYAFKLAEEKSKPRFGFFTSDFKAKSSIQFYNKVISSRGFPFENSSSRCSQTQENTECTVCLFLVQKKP

Row | EC50 | Binder
1 | 8.52 nM | B1
2 | 0.01 nM | B2
3 | 99 nM | B3
4 | 21.5 nM | B4
